Laboratory results as given in doi:10.1101/466946 (bioRxiv, 2018).

Biological target: recombinant full-length CIN85 (human, UniProt Q96B97 1-665)
Assay: SPR

Chain of recombinant full-length CIN85 (Q96B97 whole entry): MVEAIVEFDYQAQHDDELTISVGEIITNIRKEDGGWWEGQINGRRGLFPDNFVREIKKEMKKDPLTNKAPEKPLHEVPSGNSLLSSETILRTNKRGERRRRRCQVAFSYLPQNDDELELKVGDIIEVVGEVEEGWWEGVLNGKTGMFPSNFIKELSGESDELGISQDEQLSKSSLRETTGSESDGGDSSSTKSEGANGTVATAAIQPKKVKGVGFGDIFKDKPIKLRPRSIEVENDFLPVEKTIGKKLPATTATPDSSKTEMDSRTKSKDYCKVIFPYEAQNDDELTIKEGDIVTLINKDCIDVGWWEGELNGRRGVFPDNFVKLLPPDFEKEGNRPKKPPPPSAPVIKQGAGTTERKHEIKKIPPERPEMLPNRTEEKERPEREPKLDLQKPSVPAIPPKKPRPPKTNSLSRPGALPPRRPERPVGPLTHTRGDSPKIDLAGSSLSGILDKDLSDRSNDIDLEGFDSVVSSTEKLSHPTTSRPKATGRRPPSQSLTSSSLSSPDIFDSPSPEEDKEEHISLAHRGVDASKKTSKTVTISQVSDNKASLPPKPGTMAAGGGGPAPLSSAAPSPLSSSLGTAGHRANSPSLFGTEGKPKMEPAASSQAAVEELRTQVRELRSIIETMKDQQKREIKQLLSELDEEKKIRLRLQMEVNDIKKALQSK

Kd: 28.5 nM
B1: recombinant PHD2 (enzyme, human, UniProt Q9GZT9 1-426, looked up)
chain: MANDSGGPGGPSPSERDRQYCELCGKMENLLRCSRCRSSFYCCKEHQRQDWKKHKLVCQGSEGALGHGVGPHQHSGPAPPAAVPPPRAGAREPRKAAARRDNASGDAAKGKVKAKPPADPAAAASPCRAAAGGQGSAVAAEAEPGKEEPPARSSLFQEKANLYPPSNTPGDALSPGGGLRPNGQTKPLPALKLALEYIVPCMNKHGICVVDDFLGKETGQQIGDEVRALHDTGKFTDGQLVSQKSDSSKDIRGDKITWIEGKEPGCETIGLLMSSMDDLIRHCNGKLGSYKINGRTKAMVACYPGNGTGYVRHVDNPNGDGRCVTCIYYLNKDWDAKVSGGILRIFPEGKAQFADIEPKFDRLLFFWSDRRNPHEVQPAYATRYAITVWYFDADERARAKVKYLTGEKGVRVELNKPSDSVGKDVF
